We go through 3 molecules from article PMC4937323.

Read-outs that look alike come from different tables or passages of the source.

Data set [1] has as its target RPA (wild-type, biotinylated on RPA3) (Homo sapiens, UniProt P27694;P15927;P35244 1-616;1-270;1-121). Put plainly: EMSA.
In data set [2] the target is T1, Aro2 (Homo sapiens, UniProt P27694;P15927;P35244 1-616;1-270;1-121, F269A;F386A). Description: smTIRFM.
Another data set addresses AroB (Homo sapiens, UniProt P27694;P15927;P35244 1-616;1-270;1-121, W361A;F386A). Description: smTIRFM.
In a further data set the target is AroA (Homo sapiens, UniProt P27694;P15927;P35244 1-616;1-270;1-121, F238A;F269A). Description: smTIRFM.
The target in data set [3] is T1, Aro2. Description: smTIRFM. This is another data set of the same source.

T1 sequence (P27694 whole entry F269A/F386A, chain 1 of 3): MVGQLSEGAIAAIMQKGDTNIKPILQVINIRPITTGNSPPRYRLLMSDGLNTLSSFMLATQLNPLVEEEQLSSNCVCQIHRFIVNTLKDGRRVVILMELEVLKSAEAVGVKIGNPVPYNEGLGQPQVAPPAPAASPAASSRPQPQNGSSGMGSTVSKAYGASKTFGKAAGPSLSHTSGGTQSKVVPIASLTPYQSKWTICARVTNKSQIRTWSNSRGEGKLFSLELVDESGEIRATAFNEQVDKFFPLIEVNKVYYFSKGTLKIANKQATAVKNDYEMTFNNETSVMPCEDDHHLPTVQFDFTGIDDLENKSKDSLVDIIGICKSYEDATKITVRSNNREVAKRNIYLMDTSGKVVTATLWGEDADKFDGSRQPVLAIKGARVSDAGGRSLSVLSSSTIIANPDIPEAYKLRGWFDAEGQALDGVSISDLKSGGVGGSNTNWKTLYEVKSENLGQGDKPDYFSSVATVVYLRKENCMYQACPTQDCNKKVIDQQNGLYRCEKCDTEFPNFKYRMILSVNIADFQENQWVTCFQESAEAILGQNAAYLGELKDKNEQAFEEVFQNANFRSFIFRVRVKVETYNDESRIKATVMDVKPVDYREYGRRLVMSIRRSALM
T1 sequence (P15927 whole entry, chain 2 of 3): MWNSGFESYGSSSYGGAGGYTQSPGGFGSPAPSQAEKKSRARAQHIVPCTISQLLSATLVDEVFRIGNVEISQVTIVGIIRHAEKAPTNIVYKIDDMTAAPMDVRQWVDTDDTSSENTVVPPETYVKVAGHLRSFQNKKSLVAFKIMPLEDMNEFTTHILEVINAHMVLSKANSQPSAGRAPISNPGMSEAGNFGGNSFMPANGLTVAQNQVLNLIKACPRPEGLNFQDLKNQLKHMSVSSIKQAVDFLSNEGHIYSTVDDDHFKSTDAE
T1 sequence (P35244 whole entry, chain 3 of 3): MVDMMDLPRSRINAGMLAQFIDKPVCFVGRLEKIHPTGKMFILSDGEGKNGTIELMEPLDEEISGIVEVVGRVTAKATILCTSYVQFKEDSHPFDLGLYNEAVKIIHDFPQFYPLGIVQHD
AroB, sequence (P27694 whole entry W361A/F386A, chain 1 of 3): as the sequence (P27694 whole entry F269A/F386A, chain 1 of 3) above, with A269F, W361A counted along it
AroB, sequence (P15927 whole entry, chain 2 of 3): as the sequence (P15927 whole entry, chain 2 of 3) above
AroB, sequence (P35244 whole entry, chain 3 of 3): as the sequence (P35244 whole entry, chain 3 of 3) above
AroA, sequence (P27694 whole entry F238A/F269A, chain 1 of 3): as the sequence (P27694 whole entry F269A/F386A, chain 1 of 3) above, with F238A, A386F counted along it
AroA, sequence (P15927 whole entry, chain 2 of 3): as the sequence (P15927 whole entry, chain 2 of 3) above
AroA, sequence (P35244 whole entry, chain 3 of 3): as the sequence (P35244 whole entry, chain 3 of 3) above
RPA (wild-type, biotinylated on RPA3), sequence (P27694 whole entry, chain 1 of 3): as the sequence (P27694 whole entry F269A/F386A, chain 1 of 3) above, with A269F, A386F counted along it
RPA (wild-type, biotinylated on RPA3), sequence (P15927 whole entry, chain 2 of 3): as the sequence (P15927 whole entry, chain 2 of 3) above
RPA (wild-type, biotinylated on RPA3), sequence (P35244 whole entry, chain 3 of 3): as the sequence (P35244 whole entry, chain 3 of 3) above

B1: 20 nt Bubble DNA (mixed)
DNA 1: CCCTAGATACCAGTAAGCCTAAGGCCGGATCTCGGGCCATCCATGTACGC
DNA 2: GCGTACATGGATGGCTTAGAGCTTAATTCCGAATCTACTGGTATCTAGGG
As to B1, in data set [1], the binding result is given as “binds”. As for TTTTTTTTTTTTTTT (ssDNA) [dT15], the binding result with Aro2 [2], in the data set with AroB and with AroA was “no binding” in each case.

Regarding TTTTTTTTTTTTTTTTTTTT (ssDNA) [dT20], the binding result in the data set with Aro2 [3] is listed as “binds”.
